Reference: US20060002935A1

Key:
hen egg lysozyme (hen) = hen egg lysozyme (hen) (UniProt P00698); experiment: ELISA on HEL-coated plate, detection via myc tag (9e10) and anti mouse IgG-HRP
[1] = biological target: human TNFR1 on HeLa cells (human) (UniProt P19438); experiment: cell-based or functional assay
Chain of human TNFR1 on HeLa cells (human) (P19438 30-455): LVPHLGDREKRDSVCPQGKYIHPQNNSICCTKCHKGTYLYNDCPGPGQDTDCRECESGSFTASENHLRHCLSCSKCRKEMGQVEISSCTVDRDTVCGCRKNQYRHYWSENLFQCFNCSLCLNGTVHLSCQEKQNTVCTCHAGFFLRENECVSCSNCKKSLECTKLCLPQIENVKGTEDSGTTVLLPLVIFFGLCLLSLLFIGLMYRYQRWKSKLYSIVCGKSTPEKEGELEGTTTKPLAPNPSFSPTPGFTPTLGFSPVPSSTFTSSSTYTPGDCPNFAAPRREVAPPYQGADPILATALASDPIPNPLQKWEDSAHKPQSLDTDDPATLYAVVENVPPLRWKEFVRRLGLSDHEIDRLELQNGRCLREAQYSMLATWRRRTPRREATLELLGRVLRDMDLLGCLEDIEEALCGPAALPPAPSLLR

Chain of hen egg lysozyme (hen) (P00698 19-147): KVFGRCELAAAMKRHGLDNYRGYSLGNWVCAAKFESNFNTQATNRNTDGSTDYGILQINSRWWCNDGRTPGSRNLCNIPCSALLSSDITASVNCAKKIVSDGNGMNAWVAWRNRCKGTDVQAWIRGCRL

ELISA signal (hen egg lysozyme (hen)) | HeLa IL-8 Cell Assay, Activity (IC50) [1] | Binder
0.154 |  | VH CH/VH CK dual specific Fab like fragment (HEL4 CH / TAR2-5 CK) (bispecific antibody, from a related filing, V domains shown, left off: a dimerising Fc or GST; small tags and cut ends) V domain 1: EVQLLESGGGLVQPGGSLRLSCAASGFRISDEDMGWVRQAPGKGLEWVSSIYGPSGSTYYADSVKGRFTISRDNSKNTLYLQMNSLRAEDTAVYYCASALEPLSEPLGFWGQGTLVTVSS V domain 2: EVQLLESGGGLVQPGGSLRLSCAASGFTFDLYNMFWVRQAPGKGLEWVSFISQTGRLTWYADSVKGRFTISRDNSKNTLYLQMNSLRAEDTAVYYCAKTLEDFDYWGQGTLVTVSS
 | 20 nM | TAR2h-10-55 (protein) EVQLLESGGGLVQPGGSLRLSCAASGFPFEWYWMGWVRQAPGKGLEWVSAISGSGDSTYYADSVKGRFTISRDNSKNTLYQQMNSLRAEDAAVYYCAKVKLGGGPNFGYRGQGTLVTVSS
